Key:
[1] = Isoelectric focusing (PhastSystem), pI of purified protein; assay type: physicochemical; details: IEF gel
Procedure: The sample was dissolved in water and applied to a Superdex 75 HR 10/30 gel filtration column equilibrated with 20 mM sodium phosphate pH 6.0, containing 0.15 M NaCl. Fractions were collected and those containing endoglucanase activity were combined. The protein eluate was judged to be pure by SDS-polyacrylamide gel electrophoresis and the molecular mass was evaluated on the basis of molecular mass standards (prestained SDS-PAGE standards, Broad Range, Bio-Rad) to be 54 kDa. The pI of the purified protein, designated as Ct EG—54 was determined with PhastSystem (Pharmacia) to be ca 5.5.
The sample was applied to a Sephacryl S-100 HR 26/60 gel filtration column equilibrated with 50 mM sodium acetate buffer pH 5.0, containing 0.05 M NaCl. The protein fraction containing endoglucanase activity was eluted from the column with a retention volume corresponding to a molecular weight of 16 kDa. Collected fractions were combined, concentrated and gel filtration was repeated. The protein eluate was judged to be pure by SDS-polyacryl amide gel electrophoresis and the molecular weight was evaluated to be 28 kDa. The pI of the purified protein, designated as Ta EG—28, was determined in an IEF gel (PhastSystem, Pharmacia) to be about 3.5. The specific activity of Ta EG—28 at 50° C. was determined to be 4290 nkat/mg (procedure of IUPAC 1987, using CMC as substrate).
The active material from the anion exchange chromatography was applied to a Sephacryl S-300 HR 26/60 column equilibrated with 20 mM sodium phosphate pH 6.5, containing 0.15 M NaCl. The protein with β-glucosidase activity was eluted with a retention volume corresponding to a molecular weight of 243 kDa. The protein was judged to be pure by SDS-polyacrylamide gel electrophoresis and the molecular weight was evaluated to be 101 kDa. The pI of the purified protein, designated as At βG—101, was determined in an IEF gel (PhastSystem, Pharmacia) to be in the area of 5.6-4.9. The specific activity of At βG—101 at 50° C. was determined to be 1100 nkat/mg (using 4-nitrophenyl-β-D-glucopyranoside as substrate, Bailey and Linko, 1990).
The active material from the cation exchange chromatography was applied to a Sephacryl S-300 HR 26/60 column equilibrated with 20 mM sodium phosphate pH 7.0, containing 0.15 M NaCl. The protein with β-glucosidase activity was eluted with a retention volume corresponding to a molecular weight of 294 kDa. […] The protein was judged to be pure by SDS-polyacrylamide gel electrophoresis and the molecular weight was evaluated to be 81 kDa, representing most likely the monomeric form of the protein. […] The specific activity of the purified protein, designated as Ta βG—81, at 50° C. was determined to be 600 nkat/mg using 4-nitrophenyl-β-D-glucopyranoside as substrate (Bailey and Linko, 1990). […]

[2] = pH optimum of heterologously produced endoglucanases; assay type: biochemical; details: McIlvaine's buffer, pH range 4.0-8.0, CMC, 10 min, 50° C.
Procedure: (§1) The pH optimum of the heterologously produced endoglucanases was determined in the universal McIlvaine's buffer within a pH range of 4.0-8.0 using carboxymethylcellulose as substrate. As shown in FIG. 6 A the broadest pH range (4.5-6.0) is that of the Acremonium EG—40/Cel45A protein, the optimum being at pH 5.5. The pH optima for the other heterologously produced endoglucanases are pH 5.0-5.5 and 6.0 for Acremonium EG—40_like/Cel45B and Thermoascus EG—28/Cel5A, respectively. The optimal temperature for enzymatic activity of these endoglucanases was determined at the temperature range of 50-85° C. as described above. The highest activity of the enzymes was determined to be at 75° C., 60° C., and 75° C. for the Acremonium EG—40/Cel45A, EG—40 like/Cel45B, and Thermoascus EG—28/Cel5A, respectively (FIG. 6 B).

[3] = Hydrolysis with endoglucanase preparations, corn stover; assay type: biochemical; details: with CBHI and CBHII of T. reesei; 48 h, 45° C., pH 5.0
[4] = Temperature optimum of heterologously produced endoglucanases; assay type: biochemical; details: temperature range 50-85° C., CMC
Procedure: as §1

B1: Ta EG_28: endoglucanase of Thermoascus aurantiacus ALKO4242, gene Ta cel5A, amino acid SEQ ID NO: 10 (protein)
chain: MKLGSLVLALSAARLTLSAPLADRKQETKRAKVFQWFGSNESGAEFGSQNLPGVEGKDYIWPDPNTIDTLISKGMNIFRVPFMMERLVPNSMTGSPDPNYLADLIATVNAITQKGAYAVVDPHNYGRYYNSIISSPSDFQTFWKTVASQFASNPLVIFDTNNEYHDMDQTLVLNLNQAAIDGIRSAGATSQYIFVEGNSWTGAWTWTNVNDNMKSLTDPSDKIIYEMHQYLDSDGSGTSATCVSSTIGQERITSATQWLRANGKKGIIGEFAGGANDVCETAITGMLDYMAQNTDVWTGAIWWAAGPWWGDYIFSMEPDNGIAYQQILPILTPYL
- pI of the purified protein [1]: about 3.5
- pH optimum [2]: 6.0
- Hydrolysis products as reducing sugars, SECS [3]: 3.9 mg/mL
- Temperature of highest activity [4]: 75 °C
